According to patent US20150329642A1 (Genmab, published 2015):

What was measured:
cMetECDHis [1] = target: T1, cMetECDHis (human, UniProt P08581 25-932, limits assumed, biotinylated in the cross-block ELISA of Example 17); assay: cross-block ELISA; competitor 005
T1 construct: Expressed in HEK-293F cells; also called soluble cMetECDHis; biotinylated cMetECDHis
Protocol: (§1) First, the optimal coating concentrations of the tested anti-c-Met antibodies and the optimal cMetECDHis concentration were determined. Therefore, ELISA wells were coated overnight at 4° C. with anti-c-Met HuMabs serially diluted in PBS (8 μg/mL in 2-fold dilutions). Next, the ELISA wells were washed with PBST (PBS supplemented with 0.05% Tween-20 [Sigma-Aldrich, Zwijndrecht, The Netherlands]) and blocked for one hour at room temperature (RT) with PBSTC (PBST supplemented 2% [v/v] chicken serum [Gibco, Paisley, Scotland]). Subsequently, the ELISA wells were washed with PBST and incubated for one hour at RT with biotinylated cMetECDHis serially diluted in PBSTC (1 μg/mL in 2-fold dilutions). Unbound biotinylated cMetECDHis was washed away with PBST, and bound biotinylated cMetECDHis was incubated for one hour at RT with 0.1 μg/mL Streptavidin-poly-HRP (Sanquin, Amsterdam, The Netherlands) diluted in PBST.
(§2) ELISA wells were coated with anti-c-Met antibody at a sub-optimal dose as described above. After blocking of the ELISA wells, they were incubated with the predetermined concentration of biotinylated cMetECDHis in the presence of an excess of anti-c-Met antibody. The reaction was developed as described above. Residual binding was expressed as a percentage relative to the binding observed in the absence of competitor antibody.

cMetECDHis [2] = target: T1, cMetECDHis; assay: cross-block ELISA; competitor 181
Protocol: as §1, §2

cMetECDHis [3] = target: T1, cMetECDHis; assay: cross-block ELISA; competitor 006
Protocol: as §1, §2

cMetECDHis [4] = target: T1, cMetECDHis; assay: cross-block ELISA; competitor 022
Protocol: as §1, §2

cMetECDHis [5] = target: T1, cMetECDHis; assay: cross-block ELISA; competitor 062
Protocol: as §1, §2

cMetECDHis [6] = target: T1, cMetECDHis; assay: cross-block ELISA; competitor 008
Protocol: as §1, §2

cMetECDHis [7] = target: T1, cMetECDHis; assay: BLI (Octet); antibody captured, cMetECDHis in solution
In short: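 Bio-layer interferometry: anti-c-Met IgG immobilized via anti-human Fc sensors, exposed roughly 10 min to 10 μg/mL HEK293-made cMetECDHis, then moved to kinetics buffer for off-rate. Affinity derived with a 1:1 Langmuir model.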

cMetECDHis [8] = target: T1, cMetECDHis; assay: cross-block ELISA; competitor 5D5
Protocol: as §1, §2

cMetECDHis [9] = target: T1, cMetECDHis; assay: cross-block ELISA; competitor 045
Protocol: as §1, §2

cMetECDHis [10] = target: T1, cMetECDHis; assay: cross-block ELISA; competitor 069
Protocol: as §1, §2

cMetECDHis [11] = target: T1, cMetECDHis; assay: cross-block ELISA; competitor 068
Protocol: as §1, §2

cMetECDHis [12] = target: T1, cMetECDHis; assay: cross-block ELISA; competitor 098
Protocol: as §1, §2

cMetECDHis [13] = target: T1, cMetECDHis; assay: cross-block ELISA; competitor 058
Protocol: as §1, §2

cMetECDHis [14] = target: T1, cMetECDHis; assay: cross-block ELISA; competitor 035
Protocol: as §1, §2

cMetECDHis [15] = target: T1, cMetECDHis; assay: cross-block ELISA; competitor G11-HZ
Protocol: as §1, §2

cMetECDHis [16] = target: T1, cMetECDHis; assay: cross-block ELISA; competitor 024
Protocol: as §1, §2

cMetECDHis [17] = target: T1, cMetECDHis; assay: cross-block ELISA; competitor 101
Protocol: as §1, §2

| residual binding, % of no competitor (cMetECDHis [1]) [%] | residual binding, % of no competitor (cMetECDHis [2]) [%] | residual binding, % of no competitor (cMetECDHis [3]) [%] | residual binding, % of no competitor (cMetECDHis [4]) [%] | residual binding, % of no competitor (cMetECDHis [5]) [%] | residual binding, % of no competitor (cMetECDHis [6]) [%] | Kd (cMetECDHis [7]) [nM] | koff (cMetECDHis [7]) [s⁻¹] | kon (cMetECDHis [7]) [M⁻¹ s⁻¹] | residual binding, % of no competitor (cMetECDHis [8]) [%] | residual binding, % of no competitor (cMetECDHis [9]) [%] | residual binding, % of no competitor (cMetECDHis [10]) [%] | residual binding, % of no competitor (cMetECDHis [11]) [%] | residual binding, % of no competitor (cMetECDHis [12]) [%] | residual binding, % of no competitor (cMetECDHis [13]) [%] | residual binding, % of no competitor (cMetECDHis [14]) [%] | residual binding, % of no competitor (cMetECDHis [15]) [%] | residual binding, % of no competitor (cMetECDHis [16]) [%] | residual binding, % of no competitor (cMetECDHis [17]) [%] | Binder |
| --- | --- | --- | --- | --- | --- | --- | --- | --- | --- | --- | --- | --- | --- | --- | --- | --- | --- | --- | --- |
| 95.9 | 3.6 | 93.7 | 92.5 | 2 | 98.7 | 2.23 | 0.000531 | 237000 | 94.2 | 96.8 | 2.2 | 6.5 | 5.1 | 98.9 | 96 | 98.7 | 4.3 | 2.4 | anti-c-Met HuMab 181 (IgG1) (antibody, V domains shown, also called TH1016-181; PC1016-181) VH: QVQLVQSGAEVKKPGASVKVSCKASGYTFTSYGISWVRQAPGQGLEWMGWISTYNGYTNYAQKLQGRVTMTTDTSTSTAYMELRSLRSDDTAVYYCARDLRGTAYFDYWGQGTLVTVSS VL: DIQMTQSPSSVSASVGDRVTITCRASQGISNWLAWYQHKPGKAPKLLIYAASSLLSGVPSRFSGSGSGTDFTLTISSLQPEDFATYYCQQANSFPITFGQGTRLEIK |
| 99.6 | 12 | 97.9 | 95.8 | 8.8 | 99.8 | 1.82 | 0.000297 | 164000 | 94.9 | 96.7 | 3.4 | 18 | 2.6 | 98.6 | 89.4 | 99.6 | 12.9 | 4 | anti-c-Met HuMab 098 (IgG1) (antibody, V domains shown, also called TH1016-098; PC1016-098) VH: QVQLVQSGAEVKKPGASVKVSCKASGYTFTNFGISWVRQAPGQGLEWMGWISAFNGHTDYSQKVQGRVTMTTDTSTSTAYMELRSLRSDDTAVFYCARSHYYGSGSPFDYWGQGTLVTVSS VL: DIQMTQSPSSLSASVGDRVTITCRASQGISNWLAWYQQKPEKAPKSLIYAASSLQSGVPSRFSGSGSGTDFTLTISSLQPEDFATYYCHQYKSYPWTFGQGTKVEIK |
| 91.5 | 41.9 | 89.7 | 90.7 | 36.9 | 94 | 1.27 | 0.000214 | 169000 | 97.2 | 94.7 | 9.5 | 45.9 | 9.7 | 93.1 | 96.7 | 98.3 | 40.5 | 3.7 | anti-c-Met HuMab 101 (IgG1) (antibody, V domains shown) VH: QVQLVQSGGEVKKPGASVKVSCKASGYTFTRHGITWVRQAPGQGLEWMGWISADNGNTNYAQKFQDRVTMTTDTSTSTAYMELRSLRSDDTAVYFCARVFRYFDWLLPYFDYWGQGTLVTVST VL: not shown |
| 31.4 | 121 | 43.6 | 6.8 | 109 | 90.2 | 2.7 | 0.00125 | 464000 | 2.8 | 112 | 113 | 119 | 112 | 4 | 90.1 | 81.5 | 109 | 104 | IgG1-1016-058 (antibody, V domains shown, also called IgG1-058; TH1016-058) VH: EVQLVESGGGLVKPGGSLKLSCAASGFTFSDYYMYWVRQTPEKRLEWVATISDDGSYTYYPDSVKGRFTISRDNAKNNLYLQMSSLKSEDTAMYYCAREGLYYYGSGSYYNQDYWGQGTLVTVSS VL: AIQLTQSPSSLSASVGDRVTITCRASQGLSSALAWYRQKPGKAPKLLIYDASSLESGVPSRFSGSGSGTDFTLTISSLQPEDFATYYCQQFTSYPQITFGQGTRLEIK |
